{"source": "patent US20230112794A1", "about": "(NATIONAL TAIWAN UNIVERSITY, published 2023)", "binders": {"B1": {"name": "C14 monoclonal antibody (C14mab) (antibody, IgG1, V domains shown)", "VH": "EVNLEESGGGLVQPGGSMQLSCAASGFTFSDAWMDWVRQSPEKGLEWVAEVRTKGYYPVTFYAESVKGRFTISRDDSKSSVYLQMNSLRAEDTGIYYCTRPHYGYGYFDVWGAGTTVTVSS", "VL": "not shown", "notes": "Early experiments used the C14 hybridoma culture supernatant; also called C14 clone"}}, "key": {"[1]": {"biological_target": "T1, recombinant human Hyper-IL-6 (HyIL-6), fusion of human sIL-6Rα and human IL-6 (human)", "T1 construct": "also called human IL-6Rα/IL-6 chimera; fusion protein of sIL-6Rα/IL-6", "assay": "BLI (Octet), KD on HyIL-6 against KD on IL-6", "method": "(§1) FIG. 5 illustrates the binding kinetics of C14mab. Biolayer interferometry analysis of the binding of C14mab to IL-6 (a) and HyIL-6 (b) was carried out. […] Kinetic parameters were evaluated by using a 1:1 binding model with global fitting. The experimental curves of each concentration (solid line) are shown alongside the fitted curves (dashedline). One representative set of curves is shown from three independent experiments.\n(§2) Octet is based on Bio-Layer Interferometry (BLI) for measuring protein-protein interactions. BLI analyzes the interference pattern of white light reflected from two surfaces: a layer of immobilized protein on the biosensor tip and an internal reference layer. The binding between C14mab immobilized on the biosensor tip surface using Biosensor AMC tips (ForteBio, Pall Corporation) and IL-6 (R&D systems) and HyIL-6 (R&D systems) in complex was measured. Interference patterns for the binding to or dissociating from the biosensor were measured in real time to generate a response profile on the Octet® System Octet 96 Red (ForteBio, Pall Corporation). Kinetic parameters were evaluated by using a 1:1 binding model with global fitting of three independent experiments with the Octet Red analysis software."}, "[2]": {"biological_target": "T1, recombinant human Hyper-IL-6 (HyIL-6), …", "assay": "indirect ELISA, EC50 on HyIL-6 against EC50 on IL-6", "method": "(§3) FIG. 4 illustrates the binding characteristics of purified C14mab. (a) The microplates were coated with human IL-6 (20 ng/well), HyIL-6 (60 ng/well), and IL-6 Ra (40 ng/well). Serial dilutions of C14mab were added for 1 hr at room temperature. The binding ELISA data is graphed with OD₄₅₀ readings and their associated binding percentages vs. log antibody concentration. Data are compiled from three independent experiments. Values represent the mean±SEM. (b) Data were normalized to maximum signal for IL-6 and HyIL-6 individually. EC₅₀ values were obtained by nonlinear regression fitting to a variable slope, four-parameter dose-response model using the GraphPad Prism software (San Diego, Calif., USA). (c) The binding of mouse HyIL-6 (60 ng/well) with C14mab was measured by ELISA as described in (a). Values represent the mean±SEM from three independent experiments."}, "recombinant human IL-6 [3]": {"biological_target": "T2, recombinant human IL-6 (human, UniProt P05231 30-212)", "T2 construct": "Bought protein (R&D systems); also called Interleukin-6", "assay": "indirect ELISA, IL-6 coated at 20 ng/well, four-parameter fit; coated IL-6", "method": "as §3"}, "[4]": {"biological_target": "T1, recombinant human Hyper-IL-6 (HyIL-6), …", "assay": "indirect ELISA, HyIL-6 coated at 60 ng/well, four-parameter fit; coated human HyIL-6", "method": "as §3"}, "[5]": {"biological_target": "T3, IL-6Rα (soluble IL-6 receptor alpha, R&D systems) (human, UniProt P08887 20-358)", "T3 construct": "also called IL-6 Ra; sIL-6Rα", "T3 sequence (looked up)": "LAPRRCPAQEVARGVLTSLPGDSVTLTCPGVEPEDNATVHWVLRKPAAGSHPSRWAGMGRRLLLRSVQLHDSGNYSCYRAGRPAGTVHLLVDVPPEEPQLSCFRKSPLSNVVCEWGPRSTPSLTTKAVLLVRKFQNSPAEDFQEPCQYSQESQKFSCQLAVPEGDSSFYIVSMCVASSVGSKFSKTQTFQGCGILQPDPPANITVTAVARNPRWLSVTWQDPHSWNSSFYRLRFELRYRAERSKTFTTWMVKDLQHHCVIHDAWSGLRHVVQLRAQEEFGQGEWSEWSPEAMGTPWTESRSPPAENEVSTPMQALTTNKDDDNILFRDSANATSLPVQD", "assay": "ELISA, coated IL-6Rα (40 ng/well), serial dilution of purified C14mab [a]", "method": "as §3"}, "recombinant human IL-6 [6]": {"biological_target": "T2, recombinant human IL-6", "assay": "BLI (Octet), C14mab on anti-mouse Fc capture sensor, IL-6 1.56-25 nM, 1:1 global fit", "method": "as §1, §2"}, "[7]": {"biological_target": "T1, recombinant human Hyper-IL-6 (HyIL-6), …", "assay": "BLI (Octet), C14mab on anti-mouse Fc capture sensor, HyIL-6 1.56-25 nM, 1:1 global fit", "method": "as §1, §2"}, "[8]": {"biological_target": "T4, mouse HyIL-6 (mouse IL-6/IL-6Rα complex, R&D systems) (mouse, UniProt P22272 20-357; P08505 25-211, limits assumed)", "T4 construct": "not shown: linker, if any, is not described for the bought mouse protein", "T4 sequence (chain (part 1 of 2), looked up)": "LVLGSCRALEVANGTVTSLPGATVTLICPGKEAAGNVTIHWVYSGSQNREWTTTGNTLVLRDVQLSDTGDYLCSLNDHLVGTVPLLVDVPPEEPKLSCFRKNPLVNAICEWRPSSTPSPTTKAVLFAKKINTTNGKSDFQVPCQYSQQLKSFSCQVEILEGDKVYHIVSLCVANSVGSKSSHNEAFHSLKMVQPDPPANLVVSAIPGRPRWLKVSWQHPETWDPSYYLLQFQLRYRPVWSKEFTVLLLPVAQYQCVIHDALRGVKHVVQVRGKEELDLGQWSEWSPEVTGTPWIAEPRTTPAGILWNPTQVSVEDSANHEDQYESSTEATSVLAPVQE", "T4 sequence (chain (part 2 of 2), looked up)": "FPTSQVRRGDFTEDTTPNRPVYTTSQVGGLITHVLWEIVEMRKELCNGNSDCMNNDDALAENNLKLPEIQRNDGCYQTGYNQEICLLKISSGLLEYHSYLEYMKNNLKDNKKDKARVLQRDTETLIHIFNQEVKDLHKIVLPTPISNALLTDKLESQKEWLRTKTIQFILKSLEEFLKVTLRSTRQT", "assay": "ELISA, coated mouse HyIL-6 (60 ng/well), serial dilution of purified C14mab [c]", "method": "as §3"}, "[9]": {"biological_target": "T5, IL-6/IL-6Rα complex (IL-6 bound to sIL-6Rα, not fused) (human, UniProt P08887 20-358; P05231 30-212)", "T5 construct": "Non-covalent complex; also called IL-6/sIL-6Rα combination; IL-6/sIL-6R combination", "assay": "ELISA, coated sIL-6Rα (50 ng/well), IL-6 (10 ng/well) added, C14mab added without washing off unbound IL-6 [b]", "method": "FIG. 8 illustrates the epitope of HyIL-6/C14mab interaction. (a) Differential HDX of HyIL-6 upon C14mab binding. […] (b) A scheme depicts the assay procedure (left panel). The microplates were coated with sIL-6 Rα (50 ng/well) in PBS buffer at 4° C. overnight and blocked with 1% BSA in PBS for 1 hr. Then plates were washed with PBS containing 0.05% Tween-20. Upper; without washing group, IL-6 (10 ng/well) was added for 1 hr at room temperature. Then serial dilution concentrations of C14mab were added directly for another 2 hrs. Lower; washing group, IL-6 (10 ng/well) was added for 1 hr at room temperature. After plates were washed with PBS containing 0.05% Tween-20, serial dilution concentrations of C14mab were added directly for another 1 hr. The bound C14mab was determined by ELISA. The binding results with or without washing before C14mab incubation are shown in blue and red, respectively (right panel). One representative assay of 3 is shown.\nTo further understand the C14mab binding mechanism in HyIL-6, we performed an indirect ELISA assay using C14mab as a detection antibody. Briefly, IL-6Rα was immobilized directly on the plate and then IL-6 was added to the IL-6Rα and allowed to bind. The unbound IL-6 was washed away and the IL-6/IL-6Rα complex was detected by C14mab (FIG. 8(b))."}}, "data": [{"binder": "B1", "values": [{"measurement": "fold binding strength against IL-6", "setting": "[1]", "result": "~4", "unit": "times"}, {"measurement": "fold stronger EC50 than for IL-6", "setting": "[2]", "result": "~3.5", "unit": "times"}, {"measurement": "EC50", "setting": "recombinant human IL-6 [3]", "result": 0.0153, "unit": "µg/mL"}, {"measurement": "EC50", "setting": "[4]", "result": 4.3, "unit": "ng/mL"}, {"measurement": "binding result", "setting": "[5]", "result": "no binding (tested: 10 µg/ml)"}, {"measurement": "Kd", "setting": "recombinant human IL-6 [6]", "result": 1.13, "unit": "nM"}, {"measurement": "koff", "setting": "recombinant human IL-6 [6]", "result": 0.000665, "unit": "s⁻¹"}, {"measurement": "kon", "setting": "recombinant human IL-6 [6]", "result": 605000, "unit": "M⁻¹ s⁻¹"}, {"measurement": "Kd", "setting": "[7]", "result": 0.286, "unit": "nM"}, {"measurement": "koff", "setting": "[7]", "result": 0.000144, "unit": "s⁻¹"}, {"measurement": "kon", "setting": "[7]", "result": 498000, "unit": "M⁻¹ s⁻¹"}, {"measurement": "binding result", "setting": "[8]", "result": "no binding (tested: 10 µg/ml)"}, {"measurement": "EC50 (read off the curve)", "setting": "[9]", "result": "~0.6", "unit": "µg/mL"}]}]}
